Results published in publication PMC10879843.

Molecular target: metabotropic glutamate receptor 5 (mouse (endogenous in brain cortex)) (UniProt Q3UVX5)
Assay: co-IP; mGluR5 immunoprecipitated with rabbit anti-mGluR5 on protein G magnetic beads from brain cortex lysates of 1 month-old WT and SPKO (synaptopodin knockout) mice; 20 mM Tris-HCl pH 7.4, 5 mM EDTA, 100 mM NaCl, 1% Triton X-100; overnight at 4 °C; immunoblot with anti-pan-Homer

Sequence of UniProt Q3UVX5 (Q3UVX5 19-1203): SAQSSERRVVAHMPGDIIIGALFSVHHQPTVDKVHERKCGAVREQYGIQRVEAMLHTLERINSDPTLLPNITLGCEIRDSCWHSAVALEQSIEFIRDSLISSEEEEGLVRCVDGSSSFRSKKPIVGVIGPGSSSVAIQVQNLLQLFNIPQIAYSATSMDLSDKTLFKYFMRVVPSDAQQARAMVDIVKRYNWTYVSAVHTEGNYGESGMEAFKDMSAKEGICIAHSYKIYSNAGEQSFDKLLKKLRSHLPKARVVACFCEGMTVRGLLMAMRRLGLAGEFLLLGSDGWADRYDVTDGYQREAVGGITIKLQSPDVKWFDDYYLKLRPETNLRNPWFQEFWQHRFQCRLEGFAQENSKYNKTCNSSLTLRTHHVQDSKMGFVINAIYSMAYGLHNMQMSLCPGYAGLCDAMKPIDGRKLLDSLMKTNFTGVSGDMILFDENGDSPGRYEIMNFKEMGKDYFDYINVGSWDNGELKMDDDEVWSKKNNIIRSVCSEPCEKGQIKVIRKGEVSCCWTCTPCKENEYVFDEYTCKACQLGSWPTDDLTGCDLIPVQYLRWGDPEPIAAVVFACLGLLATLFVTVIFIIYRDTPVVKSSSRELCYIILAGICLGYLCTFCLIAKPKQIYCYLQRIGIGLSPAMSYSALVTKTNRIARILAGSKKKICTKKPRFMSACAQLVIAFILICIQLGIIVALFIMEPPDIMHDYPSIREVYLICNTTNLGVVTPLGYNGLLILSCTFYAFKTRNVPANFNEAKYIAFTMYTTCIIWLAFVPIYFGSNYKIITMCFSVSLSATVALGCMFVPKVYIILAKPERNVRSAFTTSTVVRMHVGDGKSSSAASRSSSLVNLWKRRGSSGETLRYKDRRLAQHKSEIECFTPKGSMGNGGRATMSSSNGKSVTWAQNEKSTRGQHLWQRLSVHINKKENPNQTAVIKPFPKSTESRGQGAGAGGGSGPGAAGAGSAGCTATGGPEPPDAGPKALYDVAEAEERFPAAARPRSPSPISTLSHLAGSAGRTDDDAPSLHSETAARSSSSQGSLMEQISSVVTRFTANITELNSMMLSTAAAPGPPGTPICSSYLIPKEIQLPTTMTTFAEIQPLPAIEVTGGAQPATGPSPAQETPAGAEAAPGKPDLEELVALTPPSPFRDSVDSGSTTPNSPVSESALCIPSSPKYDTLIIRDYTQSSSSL

## Homer (long form) (from UniProt Q9Z2Y3 1-366) (natural protein)
  coprecipitated Homer, SPKO/WT ratio: 0.4
